In patent publication US20230235013A1 (MABSOLVE, published 2023):

T1: mouse FcRn (Sino Biological Cat. No. CT029-M08H) (mouse, UniProt Q61559 22-297; P01887 21-119)
T1 construct: Bought protein, captured on an anti-histidine chip
T1 sequence (looked up): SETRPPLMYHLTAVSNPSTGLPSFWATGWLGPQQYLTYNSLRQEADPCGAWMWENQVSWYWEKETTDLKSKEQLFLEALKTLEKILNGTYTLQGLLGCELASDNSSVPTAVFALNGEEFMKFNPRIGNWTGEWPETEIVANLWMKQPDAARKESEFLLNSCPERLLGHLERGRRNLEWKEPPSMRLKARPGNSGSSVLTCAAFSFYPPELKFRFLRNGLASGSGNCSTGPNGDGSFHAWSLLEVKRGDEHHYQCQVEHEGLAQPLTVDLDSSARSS
T1 sequence (b2m, looked up): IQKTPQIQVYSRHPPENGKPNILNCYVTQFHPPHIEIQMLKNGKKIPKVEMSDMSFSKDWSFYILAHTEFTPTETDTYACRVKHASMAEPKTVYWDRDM


Legend:
[1] = target: T2, Human C1q (Sigma Cat. No. 20476), HRP-labelled (human, UniProt P02745 23-245; P02746 28-253; P02747 29-245); assay: ELISA, antibody coated, HRP-C1q; Expt 3, buffer alone 0.102
T2 construct: Coupled to horse-radish peroxidase with Lightning-Link kit; also called HRP-labelled C1q

[2] = target: T2, Human C1q (Sigma Cat. No. 20476), …; assay: ELISA, antibody coated, HRP-C1q; Expt 2, buffer alone 0.091
[3] = target: T3, human FcRn (R&D Systems Cat. No. 8639-Fc) (human, UniProt P55899 24-297; P61769 21-119); assay: SPR, FcRn captured; Expt 2
[4] = target: T3, human FcRn (R&D Systems Cat. No. …); assay: SPR, FcRn captured; Expt 1
[5] = target: T4, C-terminus biotinylated human FcRn attached to Streptavidin-SmBiT (FcRn-SAv-SmBiT) (human, UniProt P55899 24-297; P61769 21-119, limits assumed, C-terminus biotinylated (AviTag), attached to Streptavidin-SmBiT); assay: NanoBiT FcRn competition immunoassay, competitor Tracer-LgBiT human IgG, pH 6.0
T4 construct: Kit reagent; also called hFcRn-AviTag

[6] = target: T3, human FcRn (R&D Systems Cat. No. …); assay: SPR, FcRn captured; Mean
[7] = target: T3, human FcRn (R&D Systems Cat. No. …); assay: SPR, FcRn captured; Expt 3
[8] = target: T5, cynomolgus monkey FcRn (Sino Biological Cat. No. CT031-C08H) (cynomolgus monkey, UniProt Q8SPV9 24-297; Q8SPW0 21-119); assay: SPR, FcRn captured via anti-His, pH 6.0;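 further: SPR binding signal relative to the reference cell, corrected by subtracting the response of a blank sample of running buffer alone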
T5 construct: Bought protein, captured on an anti-histidine chip; also called cynomolgus FcRn

[9] = target: T1, mouse FcRn (Sino Biological Cat. No. …); assay: SPR, FcRn captured via anti-His, pH 6.0;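 further: SPR binding signal relative to the reference cell, corrected by subtracting the response of a blank sample of running buffer alone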
[10] = target: T3, human FcRn (R&D Systems Cat. No. …); assay: SPR, FcRn captured via anti-His, pH 6.0;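 further: SPR binding signal relative to the reference cell, corrected by subtracting the response of a blank sample of running buffer alone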
[11] = target: T2, Human C1q (Sigma Cat. No. 20476), …; assay: ELISA, antibody coated, HRP-C1q; Expt 1, buffer alone 0.061

Mean Absorbance [1]	Mean Absorbance [2]	Corrected and normalised response (% of wild-type reference) [3]	Corrected and normalised response (% of wild-type reference) [4]	Mean binding activity (% of wild-type reference) [5]	Corrected and normalised response (% of wild-type reference) [6]	Corrected and normalised response (% of wild-type reference) [7]	Corrected response (RU) [8]	Corrected response (RU) [9]	Corrected response (RU) [10]	Mean Absorbance [11]	Binder
0.103 absorbance (450 nm)	0.08 absorbance (450 nm)	96.4 % of wild-type reference	95.1 % of wild-type reference	96.7 % of wild-type reference	95.1 % of wild-type reference	93.6 % of wild-type reference	–	–	–	–	anti-CD20 (rituximab) human IgG1 L234A/L235A/P329G (LALAPG reference) (antibody, EU numbering; also called 2-66; copies: 2 + 2) heavy: not shown light: QIVLSQSPAILSASPGEKVTMTCRASSSVSYIHWFQQKPGSSPKPWIYATSNLASGVPVRFSGSGSGTSYSLTISRVEAEDAATYYCQQWTSNPPTFGGGTKLEIKRTVAAPSVFIFPPSDEQLKSGTASVVCLLNNFYPREAKVQWKVDNALQSGNSQESVTEQDSKDSTYSLSSTLTLSKADYEKHKVYACEVTHQGLSSPVTKSFNRGEC
0.083 absorbance (450 nm)	0.084 absorbance (450 nm)	97.8 % of wild-type reference	98.4 % of wild-type reference	–	98.1 % of wild-type reference	98.2 % of wild-type reference	1230 RU	166 RU	535 RU	0.026 absorbance (450 nm)	anti-CD20 (rituximab) human IgG1 L234Q/L235S/G236R (antibody, EU numbering; also called 2-33; 10.77; copies: 2 + 2) heavy: QVQLQQPGAELVKPGASVKMSCKASGYTFTSYNMHWVKQTPGRGLEWIGAIYPGNGDTSYNQKFKGKATLTADKSSSTAYMQLSSLTSEDSAVYYCARSTYYGGDWYFNVWGAGTTVTVSSASTKGPSVFPLAPSSKSTSGGTAALGCLVKDYFPEPVTVSWNSGALTSGVHTFPAVLQSSGLYSLSSVVTVPSSSLGTQTYICNVNHKPSNTKVDKKVEPKSCDKTHTCPPCPAPEQSRGPSVFLFPPKPKDTLMISRTPEVTCVVVDVSHEDPEVKFNWYVDGVEVHNAKTKPREEQYNSTYRVVSVLTVLHQDWLNGKEYKCKVSNKALPAPIEKTISKAKGQPREPQVYTLPPSRDELTKNQVSLTCLVKGFYPSDIAVEWESNGQPENNYKTTPPVLDSDGSFFLYSKLTVDKSRWQQGNVFSCSVMHEALHNHYTQKSLSLSPGK light: QIVLSQSPAILSASPGEKVTMTCRASSSVSYIHWFQQKPGSSPKPWIYATSNLASGVPVRFSGSGSGTSYSLTISRVEAEDAATYYCQQWTSNPPTFGGGTKLEIKRTVAAPSVFIFPPSDEQLKSGTASVVCLLNNFYPREAKVQWKVDNALQSGNSQESVTEQDSKDSTYSLSSTLTLSKADYEKHKVYACEVTHQGLSSPVTKSFNRGEC
0.095 absorbance (450 nm)	0.077 absorbance (450 nm)	95.1 % of wild-type reference	96 % of wild-type reference	150 % of wild-type reference	93 % of wild-type reference	88.1 % of wild-type reference	–	–	–	0.068 absorbance (450 nm)	anti-CD20 (rituximab) human IgG1 L234T/L235T/G236R (antibody, EU numbering; also called 2-63; 1-165; copies: 2 + 2) heavy: QVQLQQPGAELVKPGASVKMSCKASGYTFTSYNMHWVKQTPGRGLEWIGAIYPGNGDTSYNQKFKGKATLTADKSSSTAYMQLSSLTSEDSAVYYCARSTYYGGDWYFNVWGAGTTVTVSSASTKGPSVFPLAPSSKSTSGGTAALGCLVKDYFPEPVTVSWNSGALTSGVHTFPAVLQSSGLYSLSSVVTVPSSSLGTQTYICNVNHKPSNTKVDKKVEPKSCDKTHTCPPCPAPETTRGPSVFLFPPKPKDTLMISRTPEVTCVVVDVSHEDPEVKFNWYVDGVEVHNAKTKPREEQYNSTYRVVSVLTVLHQDWLNGKEYKCKVSNKALPAPIEKTISKAKGQPREPQVYTLPPSRDELTKNQVSLTCLVKGFYPSDIAVEWESNGQPENNYKTTPPVLDSDGSFFLYSKLTVDKSRWQQGNVFSCSVMHEALHNHYTQKSLSLSPGK light: QIVLSQSPAILSASPGEKVTMTCRASSSVSYIHWFQQKPGSSPKPWIYATSNLASGVPVRFSGSGSGTSYSLTISRVEAEDAATYYCQQWTSNPPTFGGGTKLEIKRTVAAPSVFIFPPSDEQLKSGTASVVCLLNNFYPREAKVQWKVDNALQSGNSQESVTEQDSKDSTYSLSSTLTLSKADYEKHKVYACEVTHQGLSSPVTKSFNRGEC

The remaining lines, values behind:

Binder	Mean Absorbance [1]	Mean Absorbance [2]	Corrected and normalised response (% of wild-type reference) [3]	Corrected and normalised response (% of wild-type reference) [4]	Mean binding activity (% of wild-type reference) [5]	Corrected and normalised response (% of wild-type reference) [6]	Corrected and normalised response (% of wild-type reference) [7]	Corrected response (RU) [8]	Corrected response (RU) [9]	Corrected response (RU) [10]	Mean Absorbance [11]
anti-CD20 (rituximab) human IgG1 L234A/L235S/G236R (antibody, EU numbering; also called 2-4; 1-14; copies: 2 + 2) heavy: not shown light: QIVLSQSPAILSASPGEKVTMTCRASSSVSYIHWFQQKPGSSPKPWIYATSNLASGVPVRFSGSGSGTSYSLTISRVEAEDAATYYCQQWTSNPPTFGGGTKLEIKRTVAAPSVFIFPPSDEQLKSGTASVVCLLNNFYPREAKVQWKVDNALQSGNSQESVTEQDSKDSTYSLSSTLTLSKADYEKHKVYACEVTHQGLSSPVTKSFNRGEC	0.095 absorbance (450 nm)	0.1 absorbance (450 nm)	95.7 % of wild-type reference	96.5 % of wild-type reference	–	96 % of wild-type reference	95.8 % of wild-type reference	1260 RU	146 RU	539 RU	0.041 absorbance (450 nm)
anti-CD20 (rituximab) human IgG1 L234S/L235T/G236R (antibody, EU numbering; also called 2-52; 1-150; copies: 2 + 2) heavy: QVQLQQPGAELVKPGASVKMSCKASGYTFTSYNMHWVKQTPGRGLEWIGAIYPGNGDTSYNQKFKGKATLTADKSSSTAYMQLSSLTSEDSAVYYCARSTYYGGDWYFNVWGAGTTVTVSSASTKGPSVFPLAPSSKSTSGGTAALGCLVKDYFPEPVTVSWNSGALTSGVHTFPAVLQSSGLYSLSSVVTVPSSSLGTQTYICNVNHKPSNTKVDKKVEPKSCDKTHTCPPCPAPESTRGPSVFLFPPKPKDTLMISRTPEVTCVVVDVSHEDPEVKFNWYVDGVEVHNAKTKPREEQYNSTYRVVSVLTVLHQDWLNGKEYKCKVSNKALPAPIEKTISKAKGQPREPQVYTLPPSRDELTKNQVSLTCLVKGFYPSDIAVEWESNGQPENNYKTTPPVLDSDGSFFLYSKLTVDKSRWQQGNVFSCSVMHEALHNHYTQKSLSLSPGK light: QIVLSQSPAILSASPGEKVTMTCRASSSVSYIHWFQQKPGSSPKPWIYATSNLASGVPVRFSGSGSGTSYSLTISRVEAEDAATYYCQQWTSNPPTFGGGTKLEIKRTVAAPSVFIFPPSDEQLKSGTASVVCLLNNFYPREAKVQWKVDNALQSGNSQESVTEQDSKDSTYSLSSTLTLSKADYEKHKVYACEVTHQGLSSPVTKSFNRGEC	0.083 absorbance (450 nm)	0.079 absorbance (450 nm)	97.9 % of wild-type reference	98.3 % of wild-type reference	98.6 % of wild-type reference	96.6 % of wild-type reference	93.7 % of wild-type reference	–	–	–	0.047 absorbance (450 nm)
anti-CD20 (rituximab) human IgG1 L234G/L235S/G236R (antibody, EU numbering; also called 2-19; 1-59; copies: 2 + 2) heavy: QVQLQQPGAELVKPGASVKMSCKASGYTFTSYNMHWVKQTPGRGLEWIGAIYPGNGDTSYNQKFKGKATLTADKSSSTAYMQLSSLTSEDSAVYYCARSTYYGGDWYFNVWGAGTTVTVSSASTKGPSVFPLAPSSKSTSGGTAALGCLVKDYFPEPVTVSWNSGALTSGVHTFPAVLQSSGLYSLSSVVTVPSSSLGTQTYICNVNHKPSNTKVDKKVEPKSCDKTHTCPPCPAPEGSRGPSVFLFPPKPKDTLMISRTPEVTCVVVDVSHEDPEVKFNWYVDGVEVHNAKTKPREEQYNSTYRVVSVLTVLHQDWLNGKEYKCKVSNKALPAPIEKTISKAKGQPREPQVYTLPPSRDELTKNQVSLTCLVKGFYPSDIAVEWESNGQPENNYKTTPPVLDSDGSFFLYSKLTVDKSRWQQGNVFSCSVMHEALHNHYTQKSLSLSPGK light: QIVLSQSPAILSASPGEKVTMTCRASSSVSYIHWFQQKPGSSPKPWIYATSNLASGVPVRFSGSGSGTSYSLTISRVEAEDAATYYCQQWTSNPPTFGGGTKLEIKRTVAAPSVFIFPPSDEQLKSGTASVVCLLNNFYPREAKVQWKVDNALQSGNSQESVTEQDSKDSTYSLSSTLTLSKADYEKHKVYACEVTHQGLSSPVTKSFNRGEC	0.064 absorbance (450 nm)	0.091 absorbance (450 nm)	96 % of wild-type reference	97.1 % of wild-type reference	77.8 % of wild-type reference	96.3 % of wild-type reference	95.7 % of wild-type reference	–	–	–	0.052 absorbance (450 nm)
